This assay has as its target SARS-CoV-2 S trimer (SARS-CoV-2, UniProt P0DTC2). In words: SPR. The following applies: both partners purified.

B1: wheat germ agglutinin (natural protein)
chain: QRCGEQGSNMECPNNLCCSQYGYCGMGGDYCGKGCQNGACWTSKRCGSQAGGATCTNNQCCSQYGYCGFGAEYCGAGCQGGPCRADIKCGSQAGGKLCPNNLCCSQWGFCGLGSEFCGGGCQSGACSTDKPCGKDAGGRVCTNNYCCSKWGSCGIGPGYCGAGCQSGGCDG
On to B1, for which binding was put at a Kd of 1.5 nM, the koff stood at 0.00482 s⁻¹ and the on-rate (kon) came out at 3.21e+06 M⁻¹ s⁻¹.

(Values after PMC8330776 (Emerging Microbes & Infections, 2021).)
